Laboratory results taken from patent US20130259876A1 (published 2013).

Molecular target: T1, nucleoprotein of influenza A virus (NP383-391) peptide on HLA-B*27:05 (human)
T1 peptide: SRYWAIRTR
Assay: activation reporter or marker

B1: GRb (TCR, V domains shown)
Valpha: AQTVTQSQPEMSVQEAETVTLSCTYDTSENNYYLFWYKQPPSRQMILVIRQEAYKQQNATENRFSVNFQKAAKSFSLKISDSQLGDAAMYFCAYFSGGSNYKLTFGKGTLLTVNP
Vbeta: DTEVTQTPKHLVMGMTNKKSLKCEQHMGHRAMYWYKQKAKKPPELMFVYSYEKLSINESVPSRFSPECPNSSLLNLHLHALQPEDSALYLCASSQEVLDTQYFGPGTRLTVL
binding result: recognises
